Entries after “also recorded” stand apart in the source; their conditions may differ.
Legend:
[1] = test system: human fibroblast (NIH3T3); assay: Cell adhesion test on human βig-h3 coated plate (hsdhFas-1); format: cell-based; details: human βig-h3 5 ug/ml coat, FIG. 3
Protocol: (§1) Human βig-h3 was introduced into a 96-well plate at a concentration of 5 ug/ml, and coated for 14 hours at 4° C. In DMEM+0.5% BSA (Bovine Serum Albumin) culture medium, human fibroblast (NIH3T3) was introduced, and hsdhFas-1 peptide at concentrations was injected thereto, followed by mixing. The resultant mixture was cultured at 37° C. for 30 minutes, and plated on a coated well. It was cultured for 2 hours, and washed with PBS (phosphate buffered saline) so as to remove unattached cells, and then added with a substrate (4-Nitrophenyl N-acetyl-β-D-glucosaminide, Sigma, U.S.) to be activated by β-N-acetylglucosaminidase within the cell, followed by culturing at 37° C. for 1 hour. Then, a glycine EDTA solution (0.5M EDTA, 50 mM glycine, pH 10.4) was added thereto, and the coloring extent according to the number of attached cells was measured by absorbance.

NIH3T3 = assay: βig-h3-mediated cell migration test (transwell), NIH3T3; format: cell-based, mouse; details: 7 hours
Protocol: In the lower compartment of a transwell filter having an 8 um hole size allowing cells to be migrated, βig-h3 was cultured at 4° C. for 12 to 14 hours and coated. In DMEM+0.5% BSA culture medium, NIH3T3 was introduced, and administered with MFK23, MFK24 or MFK25 at concentrations, followed by mixing. The resultant mixture was cultured at 37° C. for 30 minutes, inoculated into the upper chamber of the coated well, and cultured for 7 hours at 37° C. Then, the cells migrated to the lower compartment of the filter were fixed by paraformaldehyde, and strained by a crystal violet. The cells […] remaining in the upper chamber were wiped out and the number of cells migrated to the lower compartment was microscopically counted.

[2] = test system: mouse fibroblast (NIH3T3); assay: βig-h3-mediated cell adhesion test, NIH3T3; format: cell-based; details: NIH3T3, βig-h3 5 ug/ml coat
Protocol: as §1
Also, a structurally modified peptide of a fas-1 domain of mouse βig-h3 was synthesized as a recombinant peptide (hereinafter, referred to as ‘mdhFas-1peptide’, see FIG. 2), and a mouse cell line, that is, NIH3T3 cell line, was used to test the inhibiting effect by mdhFas-1 peptide on adhesion and migration of a Synovial membrane cell in the same manner as that in the test using human βig-h3.
as §1, with “βig-h3” for “Human βig-h3”, “mouse” for “human”, “MFK23, MFK24, MFK25 or MFK27” for “hsdhFas-1 peptide”

[3] = test system: collagen-induced arthritis (CIA) mouse model; assay: Arthritis therapeutic effect in CIA mouse (clinical arthritis index); format: in vivo
Protocol: A CIA mouse model having the similar characteristic to that of human rheumatoid arthritis was prepared according to the description in a known literature (Protocol for the successful induction of collagen-induced arthritis (CIA) and collagen antibody-induced arthritis (CAIA) in mice. Chondrex, Redmond, Wash.): Bovine type 2 collagen 100 ug was mixed with Freund's complete adjuvant, and hypodermically inoculated into the tail of the mouse. After 3 weeks, bovine type 2 collagen 100 ug was mixed with Freund's incomplete adjuvant, and inoculated again into the tail of the mouse. Then, the mouse was used in the experiment.
In order to find out the therapeutic effect of arthritis in a CIA model, for four weeks from the onset (the 23rd day) of arthritis following the second injection of the bovine type 2 collagen, MFK23 or MFK24 was daily injected into the abdominal cavity in doses of 0.1 mg/kg, 1 mg/kg, 10 mg/kg and 30 mg/kg. As a control group, the same amount of PBS was injected into the abdominal cavity. From the 23rd day to the 50th day, by using a Clinical arthritis index, the severity of arthritis was daily determined. The determination was based on the following data.
0; no symptom, 1; edema in one articulation or light edema, 2; severe edema in 2 or more articulations, 3; severe edema in most articulations, 4; severe edema in the whole of legs.

[4] = test system: foot tissue of CIA mouse (Synovial membrane, cartilage, bones; CD31, ICAM-1); assay: Histologic and immunohistochemistry test on foot tissue of CIA mouse; format: in vivo; details: CIA mouse, 50th day
Protocol: In order to determine the action mechanism of an arthritis therapeutic effect in a CIA model, on the 50th day following the second injection of the bovine type 2 collagen (after 4 weeks from the onset (the 23rd day) of arthritis following the second injection of the bovine type 2 collagen), foot tissues of treatment groups were separated and subjected to histologic analysis. Then, in the tissues, a change in the expression of inflammatory mediators was examined.
A tissue sample was prepared by the following process. Skin on the foot tissue was removed. Then, the tissue was fixed in 10% formalin solution for 2 days, and demineralized in 10% EDTA solution. The demineralized tissue was subjected to a dehydrating process and a clearing process, paraffin-embedded, and was made into a fragment with a thickness of 3 um by a microtome. The tissue fragment was deparaffinized and re-dehydrated by 100% xylene and ethanol, and then non-specific peroxidase within the tissue was blocked by a solution of 0.3% hydrogen peroxide dissolved in 100% methanol.
In order to carry out an immunohistochemistry test, binding of non-specific protein was blocked by 5% BSA. Then, the tissue was cultured, together with each primary antibody (as endothelial cell markers, an antibody to CD31, and an antibody to ICAM-1 (intercellular adhesion molecule-1)), at 4° C. for 12 to 14 hours, and washed with washing buffer (0.1% BSA, 0.2% gelatin, 0.05% saponin). It was cultured together with a secondary antibody labeled with biotin at room temperature for 30 minutes, was washed, reacted with Vectastatin ABC kit (Vector Laboratories, U.S.), and was mounted with Eukitt mounting media (Fluka, Germany) for observation.

[5] = test system: TNF-a, RANKL, IL-1β, CCL-2, MMP-1, MMP-3, IL-6, VCAM-1; assay: Semiquantitative reverse transcription PCR of inflammatory mediators in CIA mouse foot tissue; format: in vivo; details: CIA mouse, 30 mg/kg, FIG. 26
Protocol: The distribution of inflammation in the foot tissue may be somewhat differently observed according to the regions, and its quantitative research is difficult. Thus, in the hind leg of a mouse CIA model treated with MFK24, the change in inflammatory mediators according to the onset of arthritis was measured by a semiquantitative reverse transcription PCR method using a Taqman probe, as described below.
From a mouse CIA model, a foot tissue was separated, and its skin was removed. The remaining tissue was grinded by a tissue homogenizer, and an extraction reagent (Easy-spim™, Intron) was used to extract all RNAs. They were quantified, and for 7 μg of RNA, a reverse transcriptase reaction was carried out by using AMV reverse transcriptase (Roche, 0.5 ul), oligo dT (Roche, 1 ul), and 10 mM dNTP (Takara, 2 ul) RNase inhibitor (Roche, 0.1 ul). For TNF-a, RANKL, IL-1β, CCL-2, MMP-1, MMP-3, IL-6, VCAM-1 and 18S RNA of a mouse, semiquantitative PCR was performed by using primers (Bioneer, Daejeon) and a Taqman probe (Roche, Germany) in LC480 (Roche, Germany), so as to determine the number of transcripts. Quantitative analysis of the transcripts was performed through comparison with 18S RNA transcripts. The primer pairs for the semiquantitative PCR are noted in [table8].

ICAM-1 and RANKL = assay: Immunoblot of ICAM-1 and RANKL in CIA mouse model; format: in vivo; details: 30 mg/kg, FIG. 27
[6] = Toxicity test in CIA mouse (weight, serologic test, blood test); details: CIA mouse, 22nd day vs 48th day
Protocol: On the 48th day, a serologic test and a blood test were carried out.

Row | Molecule | βig-h3-mediated adhesion [1] | βig-h3-mediated cell migration (NIH3T3) | βig-h3-mediated cell adhesion [2] | arthritis inhibition (clinical arthritis index) ([3]; 10 mg/kg daily) | arthritis inhibition (clinical arthritis index) ([3]; 30 mg/kg daily) | arthritis inhibiting effect (clinical arthritis index), in words ([3]; daily into the abdominal cavity) | proliferation of Synovial membrane tissue cells ([4]; 10 mg/kg) | state of the articulation region ([4]; 10 mg/kg) | vascularization induction and cell adhesion protein expression (CD31, ICAM-1) ([4]; 10 mg/kg) | proliferation of Synovial membrane tissue cells ([4]; 30 mg/kg) | shape of the foot tissue ([4]; 30 mg/kg) | vascularization induction and adhesion protein expression (CD31, ICAM-1) ([4]; 30 mg/kg) | expression levels of TNF-a, IL-6, IL-1β, ICAM-1, and RANKL vs arthritis control group [5] | expression levels of ICAM-1 and RANKL vs arthritis control group (ICAM-1 and RANKL) | body weight change compared to control group [6]
1 | hsdhFas-1: peptide prepared by removing H1 and H2 regions from the fourth fas-1 domain of human βig-h3 (protein, hsdhFas-1, peptide prepared by removing H1 and H2 regions from the fourth fas-1 domain of human βig-h3) RALPPRERSRLLGDAKELANILKYHIGDEILVSGGIGALVRLKSLQGDKLEVSLKNNVVSVNKEPVAEPDIM | concentration-dependently inhibited | concentration-dependently inhibited |  |  |  |  |  |  |  |  |  |  |  |  | 
2 | MFK12: a peptide having mdhFas-1 (as a basic structure) linked to an RGDSP (SEQ ID NO: 9) peptide (protein, MFK12) QAMPPEELNKLLANAKELTNILKYHIGDEILVSGGIGALVRLKSLQGDKLEVSSKNNVVSVNKEPVAETDIMEFGGRGDSPDDDDDLE |  | inhibited the adhesion and migration of a cell even at a lower concentration than that in Comparative Example 1; also recorded: concentration-dependently inhibited | inhibited the adhesion and migration of a cell even at a lower concentration than that in Comparative Example 1; also recorded: concentration-dependently inhibited | about 27% | about 60% | concentration-dependently inhibited | hyper-proliferated | the articulation region was destroyed | increased as much as that in the control group | inhibited compared to that in the control group | nearly normal | reduced | reduced levels | reduced levels | abnormal findings in the weight change were not observed

From US9605038B2, “Fusion peptide comprising dhFas-1 domain and MMP substrate and use thereof for preventing and treating rheumatoid arthritis” (Kyungpook National University Industry-Academic Cooperation …, priority 2010, dated 2017)
